Where no end group is shown, it is not given here. [ ]: non-standard residue; d: D form. Aib = CC(C)(N)C(=O)O
Molecular target: human GLP-1 receptor (human, UniProt P43220)
Test: cell-based or functional assay

Binder | CRE luciferase EC50, 0% HSA [nM] | CRE luciferase EC50, 1% HSA [nM]
H[Aib]EGTFTSDLSKQMEEEAVREFIEWLKNK[Aib]LEFLEPL-NH2 (N-terminus assumed; SMILES CC[C@H](C)[C@H](NC(=O)[C@H](Cc1ccccc1)NC(=O)[C@H](CCC(=O)O)NC(=O)[C@H](CCCNC(=N)N)NC(=O)[C@@H](NC(=O)[C@H](C)NC(=O)[C@H](CCC(=O)O)NC(=O)[C@H](CCC(=O)O)NC(=O)[C@H](CCC(=O)O)NC(=O)[C@H](CCSC)NC(=O)[C@H](CCC(N)=O)NC(=O)[C@H](CCCCN)NC(=O)[C@H](CO)NC(=O)[C@H](CC(C)C)NC(=O)[C@H](CC(=O)O)NC(=O)[C@H](CO)NC(=O)[C@@H](NC(=O)[C@H](Cc1ccccc1)NC(=O)[C@@H](NC(=O)CNC(=O)[C@H](CCC(=O)O)NC(=O)C(C)(C)NC(=O)[C@@H](N)Cc1c[nH]cn1)[C@@H](C)O)[C@@H](C)O)C(C)C)C(=O)N[C@@H](CCC(=O)O)C(=O)N[C@@H](Cc1c[nH]c2ccccc12)C(=O)N[C@@H](CC(C)C)C(=O)N[C@@H](CCCCN)C(=O)N[C@@H](CC(N)=O)C(=O)N[C@@H](CCCCN)C(=O)NC(C)(C)C(=O)N[C@@H](CC(C)C)C(=O)N[C@@H](CCC(=O)O)C(=O)N[C@@H](Cc1ccccc1)C(=O)N[C@@H](CC(C)C)C(=O)N[C@@H](CCC(=O)O)C(=O)N1CCC[C@H]1C(=O)N[C@@H](CC(C)C)C(N)=O) [[Aib2,Glu21,Lys29,Aib30,Leu31,Glu32,Phe33,Leu34,Glu35,Leu37]-Exendin-4-(1-37)-peptide amide] | 0.032 | 0.013
H[Aib]EGTFTSDVSSYLEGEAVREFIAWLVER[Aib]REFL-NH2 (N-terminus assumed; SMILES CC[C@H](C)[C@H](NC(=O)[C@H](Cc1ccccc1)NC(=O)[C@H](CCC(=O)O)NC(=O)[C@H](CCCNC(=N)N)NC(=O)[C@@H](NC(=O)[C@H](C)NC(=O)[C@H](CCC(=O)O)NC(=O)CNC(=O)[C@H](CCC(=O)O)NC(=O)[C@H](CC(C)C)NC(=O)[C@H](Cc1ccc(O)cc1)NC(=O)[C@H](CO)NC(=O)[C@H](CO)NC(=O)[C@@H](NC(=O)[C@H](CC(=O)O)NC(=O)[C@H](CO)NC(=O)[C@@H](NC(=O)[C@H](Cc1ccccc1)NC(=O)[C@@H](NC(=O)CNC(=O)[C@H](CCC(=O)O)NC(=O)C(C)(C)NC(=O)[C@@H](N)Cc1c[nH]cn1)[C@@H](C)O)[C@@H](C)O)C(C)C)C(C)C)C(=O)N[C@@H](C)C(=O)N[C@@H](Cc1c[nH]c2ccccc12)C(=O)N[C@@H](CC(C)C)C(=O)N[C@H](C(=O)N[C@@H](CCC(=O)O)C(=O)N[C@@H](CCCNC(=N)N)C(=O)NC(C)(C)C(=O)N[C@@H](CCCNC(=N)N)C(=O)N[C@@H](CCC(=O)O)C(=O)N[C@@H](Cc1ccccc1)C(=O)N[C@@H](CC(C)C)C(N)=O)C(C)C) [[Aib8,Glu23,Val25,Arg26,Glu34,Arg35,Aib36,Arg37]-GLP-1-(7-37)-peptidyl-Glu-Phe-Leu amide] | 0.086 | 0.041
H[Aib]EGTFTSDLSKQMEEEAVREFIEWLKNK[Aib]LEFLELP-NH2 (N-terminus assumed; SMILES CC[C@H](C)[C@H](NC(=O)[C@H](Cc1ccccc1)NC(=O)[C@H](CCC(=O)O)NC(=O)[C@H](CCCNC(=N)N)NC(=O)[C@@H](NC(=O)[C@H](C)NC(=O)[C@H](CCC(=O)O)NC(=O)[C@H](CCC(=O)O)NC(=O)[C@H](CCC(=O)O)NC(=O)[C@H](CCSC)NC(=O)[C@H](CCC(N)=O)NC(=O)[C@H](CCCCN)NC(=O)[C@H](CO)NC(=O)[C@H](CC(C)C)NC(=O)[C@H](CC(=O)O)NC(=O)[C@H](CO)NC(=O)[C@@H](NC(=O)[C@H](Cc1ccccc1)NC(=O)[C@@H](NC(=O)CNC(=O)[C@H](CCC(=O)O)NC(=O)C(C)(C)NC(=O)[C@@H](N)Cc1c[nH]cn1)[C@@H](C)O)[C@@H](C)O)C(C)C)C(=O)N[C@@H](CCC(=O)O)C(=O)N[C@@H](Cc1c[nH]c2ccccc12)C(=O)N[C@@H](CC(C)C)C(=O)N[C@@H](CCCCN)C(=O)N[C@@H](CC(N)=O)C(=O)N[C@@H](CCCCN)C(=O)NC(C)(C)C(=O)N[C@@H](CC(C)C)C(=O)N[C@@H](CCC(=O)O)C(=O)N[C@@H](Cc1ccccc1)C(=O)N[C@@H](CC(C)C)C(=O)N[C@@H](CCC(=O)O)C(=O)N[C@@H](CC(C)C)C(=O)N1CCC[C@H]1C(N)=O) [[Aib2,Glu21,Lys29,Aib30,Leu31,Glu32,Phe33,Leu34,Glu35,Leu36]-Exendin-4-(1-37)-peptide amide] | 0.023 | 0.01
H[Aib]EGTFTSDLSKQMEEEAVREFIEWLKNK[Aib]LEFGELL-NH2 (N-terminus assumed; SMILES CC[C@H](C)[C@H](NC(=O)[C@H](Cc1ccccc1)NC(=O)[C@H](CCC(=O)O)NC(=O)[C@H](CCCNC(=N)N)NC(=O)[C@@H](NC(=O)[C@H](C)NC(=O)[C@H](CCC(=O)O)NC(=O)[C@H](CCC(=O)O)NC(=O)[C@H](CCC(=O)O)NC(=O)[C@H](CCSC)NC(=O)[C@H](CCC(N)=O)NC(=O)[C@H](CCCCN)NC(=O)[C@H](CO)NC(=O)[C@H](CC(C)C)NC(=O)[C@H](CC(=O)O)NC(=O)[C@H](CO)NC(=O)[C@@H](NC(=O)[C@H](Cc1ccccc1)NC(=O)[C@@H](NC(=O)CNC(=O)[C@H](CCC(=O)O)NC(=O)C(C)(C)NC(=O)[C@@H](N)Cc1c[nH]cn1)[C@@H](C)O)[C@@H](C)O)C(C)C)C(=O)N[C@@H](CCC(=O)O)C(=O)N[C@@H](Cc1c[nH]c2ccccc12)C(=O)N[C@@H](CC(C)C)C(=O)N[C@@H](CCCCN)C(=O)N[C@@H](CC(N)=O)C(=O)N[C@@H](CCCCN)C(=O)NC(C)(C)C(=O)N[C@@H](CC(C)C)C(=O)N[C@@H](CCC(=O)O)C(=O)N[C@@H](Cc1ccccc1)C(=O)NCC(=O)N[C@@H](CCC(=O)O)C(=O)N[C@@H](CC(C)C)C(=O)N[C@@H](CC(C)C)C(N)=O) [[Aib2,Glu21,Lys29,Aib30,Leu31,Glu32,Phe33,Glu35,Leu36,Leu37]-Exendin-4-(1-37)-peptide amide] | 0.026 | 0.012
H[Aib]EGTFTSDVSSYLEGQAAKEFIAWLVEK[Aib]KEFL-NH2 (N-terminus assumed; SMILES CC[C@H](C)[C@H](NC(=O)[C@H](Cc1ccccc1)NC(=O)[C@H](CCC(=O)O)NC(=O)[C@H](CCCCN)NC(=O)[C@H](C)NC(=O)[C@H](C)NC(=O)[C@H](CCC(N)=O)NC(=O)CNC(=O)[C@H](CCC(=O)O)NC(=O)[C@H](CC(C)C)NC(=O)[C@H](Cc1ccc(O)cc1)NC(=O)[C@H](CO)NC(=O)[C@H](CO)NC(=O)[C@@H](NC(=O)[C@H](CC(=O)O)NC(=O)[C@H](CO)NC(=O)[C@@H](NC(=O)[C@H](Cc1ccccc1)NC(=O)[C@@H](NC(=O)CNC(=O)[C@H](CCC(=O)O)NC(=O)C(C)(C)NC(=O)[C@@H](N)Cc1c[nH]cn1)[C@@H](C)O)[C@@H](C)O)C(C)C)C(=O)N[C@@H](C)C(=O)N[C@@H](Cc1c[nH]c2ccccc12)C(=O)N[C@@H](CC(C)C)C(=O)N[C@H](C(=O)N[C@@H](CCC(=O)O)C(=O)N[C@@H](CCCCN)C(=O)NC(C)(C)C(=O)N[C@@H](CCCCN)C(=O)N[C@@H](CCC(=O)O)C(=O)N[C@@H](Cc1ccccc1)C(=O)N[C@@H](CC(C)C)C(N)=O)C(C)C) [[Aib8,Glu34,Lys35,Aib36,Lys37]-GLP-1-(7-37)-peptidyl-Glu-Phe-Leu amide] | 0.108 | 0.042
HAEGTFTNDMTNYLEGEAVKEFIAWLVEK[Aib]KEFL-NH2 (N-terminus assumed; SMILES CC[C@H](C)[C@H](NC(=O)[C@H](Cc1ccccc1)NC(=O)[C@H](CCC(=O)O)NC(=O)[C@H](CCCCN)NC(=O)[C@@H](NC(=O)[C@H](C)NC(=O)[C@H](CCC(=O)O)NC(=O)CNC(=O)[C@H](CCC(=O)O)NC(=O)[C@H](CC(C)C)NC(=O)[C@H](Cc1ccc(O)cc1)NC(=O)[C@H](CC(N)=O)NC(=O)[C@@H](NC(=O)[C@H](CCSC)NC(=O)[C@H](CC(=O)O)NC(=O)[C@H](CC(N)=O)NC(=O)[C@@H](NC(=O)[C@H](Cc1ccccc1)NC(=O)[C@@H](NC(=O)CNC(=O)[C@H](CCC(=O)O)NC(=O)[C@H](C)NC(=O)[C@@H](N)Cc1c[nH]cn1)[C@@H](C)O)[C@@H](C)O)[C@@H](C)O)C(C)C)C(=O)N[C@@H](C)C(=O)N[C@@H](Cc1c[nH]c2ccccc12)C(=O)N[C@@H](CC(C)C)C(=O)N[C@H](C(=O)N[C@@H](CCC(=O)O)C(=O)N[C@@H](CCCCN)C(=O)NC(C)(C)C(=O)N[C@@H](CCCCN)C(=O)N[C@@H](CCC(=O)O)C(=O)N[C@@H](Cc1ccccc1)C(=O)N[C@@H](CC(C)C)C(N)=O)C(C)C) | 0.186 | 0.077
H[Aib]EGTFTSDLSKQMEEEAVREFIEWLKNK[Aib]LEFLALL-NH2 (N-terminus assumed; SMILES CC[C@H](C)[C@H](NC(=O)[C@H](Cc1ccccc1)NC(=O)[C@H](CCC(=O)O)NC(=O)[C@H](CCCNC(=N)N)NC(=O)[C@@H](NC(=O)[C@H](C)NC(=O)[C@H](CCC(=O)O)NC(=O)[C@H](CCC(=O)O)NC(=O)[C@H](CCC(=O)O)NC(=O)[C@H](CCSC)NC(=O)[C@H](CCC(N)=O)NC(=O)[C@H](CCCCN)NC(=O)[C@H](CO)NC(=O)[C@H](CC(C)C)NC(=O)[C@H](CC(=O)O)NC(=O)[C@H](CO)NC(=O)[C@@H](NC(=O)[C@H](Cc1ccccc1)NC(=O)[C@@H](NC(=O)CNC(=O)[C@H](CCC(=O)O)NC(=O)C(C)(C)NC(=O)[C@@H](N)Cc1c[nH]cn1)[C@@H](C)O)[C@@H](C)O)C(C)C)C(=O)N[C@@H](CCC(=O)O)C(=O)N[C@@H](Cc1c[nH]c2ccccc12)C(=O)N[C@@H](CC(C)C)C(=O)N[C@@H](CCCCN)C(=O)N[C@@H](CC(N)=O)C(=O)N[C@@H](CCCCN)C(=O)NC(C)(C)C(=O)N[C@@H](CC(C)C)C(=O)N[C@@H](CCC(=O)O)C(=O)N[C@@H](Cc1ccccc1)C(=O)N[C@@H](CC(C)C)C(=O)N[C@@H](C)C(=O)N[C@@H](CC(C)C)C(=O)N[C@@H](CC(C)C)C(N)=O) [[Aib2,Glu21,Lys29,Aib30,Leu31,Glu32,Phe33,Leu34,Leu36,Leu37]-Exendin-4-(1-37)-peptide amide] | 0.754 | 0.388

From patent US20150344540A1, “NOVEL GLP-1 RECEPTOR AGONISTS WITH CHOLESTEROL EFFLUX ACTIVITY” (NOVO NORDISK A/S, priority 2012, published 2015)
